Assay results taken from US20030070184A1, “LIGANDS FOR DISCOIDIN DOMAIN RECEPTOR TYROSINE KINASES AND COMPLEXES THEREOF” (priority 1999, published 2003).

Tested on: DDR receptors
Assay: Effect of other agents on DDR activity / collagen-induced DDR tyrosine phosphorylation
Format: cell-based
Conditions: collagen-associated molecules

effect on DDR activity: no effect
B1: decorin: collagen-associated molecule (protein, UniProt P07585 31-359, looked up)
Decorin: DEASGIGPEVPDDRDFEPSLGPVCPFRCQCHLRVVQCSDLGLDKVPKDLPPDTTLLDLQNNKITEIKDGDFKNLKNLHALILVNNKISKVSPGAFTPLVKLERLYLSKNQLKELPEKMPKTLQELRAHENEITKVRKVTFNGLNQMIVIELGTNPLKSSGIENGAFQGMKKLSYIRIADTNITSIPQGLPPSLTELHLDGNKISRVDAASLKGLNNLAKLGLSFNSISAVDNGSLANTPHLRELHLDNNKLTRVPGGLAEHKYIQVVYLHNNNISVVGSSDFCPPGHNTKKASYSGVSLFSNPVQYWEIQPSTFRCVYVRSAIQLGNYK
